# Target: NRTN-GFRα2 complex (wild type) (human) (UniProt Q99748)
# Experiment: SPR
# UniProt Q99748, sequence (Q99748 97-197, chain 1 of 2): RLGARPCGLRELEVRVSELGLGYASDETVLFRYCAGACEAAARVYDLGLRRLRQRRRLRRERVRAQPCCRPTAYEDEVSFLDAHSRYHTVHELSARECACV
# UniProt Q99748, sequence (O00451 22-441, chain 2 of 2, further chain): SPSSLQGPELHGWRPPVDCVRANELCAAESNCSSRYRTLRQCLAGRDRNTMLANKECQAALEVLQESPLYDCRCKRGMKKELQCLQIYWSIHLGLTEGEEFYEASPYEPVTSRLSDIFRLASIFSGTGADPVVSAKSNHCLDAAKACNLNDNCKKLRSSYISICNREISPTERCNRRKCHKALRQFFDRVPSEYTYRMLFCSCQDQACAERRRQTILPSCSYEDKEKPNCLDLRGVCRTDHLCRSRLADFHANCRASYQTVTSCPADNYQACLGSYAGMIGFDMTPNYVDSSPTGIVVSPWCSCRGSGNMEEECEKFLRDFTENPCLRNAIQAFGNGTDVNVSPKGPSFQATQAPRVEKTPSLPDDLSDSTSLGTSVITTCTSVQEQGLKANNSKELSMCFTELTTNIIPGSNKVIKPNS
substance,measurement,value
"human RET extracellular domain (RET^ECD, 29 to 635) (from UniProt P07949 29-635) (receptor)",increase in response over NRTN alone,150 RU

# Source: article PMC6669014
